Results on eight molecules are retold here after patent WO2021226442A2 (dated 2021).

The target of test [1] is T1, cynomolgus monkey complement component C3 (cynomolgus monkey, UniProt P01024 24-1663 (human entry)).
T1 construct: In the hemolysis assays cyno serum was the source of C3; also called cyno C3
As to the kind of experiment: SPR (Biacore), antibody captured, C3 injected, 37 C. (In SPR one partner is held on a chip, and binding of the other changes the refractive index at the surface.)

In test [2] the target is T2, human complement component C3 (human, UniProt P01024 23-667; P01024 672-1663).
T2 construct: Purified human C3 (Complement Technologies); also called human C3
T2 sequence (P01024 23-667, chain 1 of 2): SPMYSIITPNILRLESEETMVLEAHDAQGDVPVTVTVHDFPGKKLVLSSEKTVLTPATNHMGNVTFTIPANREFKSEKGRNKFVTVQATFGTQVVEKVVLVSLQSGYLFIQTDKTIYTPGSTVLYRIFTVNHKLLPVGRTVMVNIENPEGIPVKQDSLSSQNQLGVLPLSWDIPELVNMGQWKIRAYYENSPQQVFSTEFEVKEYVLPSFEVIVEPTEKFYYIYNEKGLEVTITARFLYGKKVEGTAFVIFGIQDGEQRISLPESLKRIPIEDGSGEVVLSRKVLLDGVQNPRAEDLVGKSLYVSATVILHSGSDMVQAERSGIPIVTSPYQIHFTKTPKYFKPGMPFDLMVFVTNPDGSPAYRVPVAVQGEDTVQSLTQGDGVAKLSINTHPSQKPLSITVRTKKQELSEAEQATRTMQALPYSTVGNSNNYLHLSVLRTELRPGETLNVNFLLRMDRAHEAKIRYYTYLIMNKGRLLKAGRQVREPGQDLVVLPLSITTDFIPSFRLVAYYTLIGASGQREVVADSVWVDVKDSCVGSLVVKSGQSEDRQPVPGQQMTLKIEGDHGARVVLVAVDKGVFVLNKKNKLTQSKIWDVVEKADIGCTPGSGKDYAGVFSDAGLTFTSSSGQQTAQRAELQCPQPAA
T2 sequence (P01024 672-1663, chain 2 of 2): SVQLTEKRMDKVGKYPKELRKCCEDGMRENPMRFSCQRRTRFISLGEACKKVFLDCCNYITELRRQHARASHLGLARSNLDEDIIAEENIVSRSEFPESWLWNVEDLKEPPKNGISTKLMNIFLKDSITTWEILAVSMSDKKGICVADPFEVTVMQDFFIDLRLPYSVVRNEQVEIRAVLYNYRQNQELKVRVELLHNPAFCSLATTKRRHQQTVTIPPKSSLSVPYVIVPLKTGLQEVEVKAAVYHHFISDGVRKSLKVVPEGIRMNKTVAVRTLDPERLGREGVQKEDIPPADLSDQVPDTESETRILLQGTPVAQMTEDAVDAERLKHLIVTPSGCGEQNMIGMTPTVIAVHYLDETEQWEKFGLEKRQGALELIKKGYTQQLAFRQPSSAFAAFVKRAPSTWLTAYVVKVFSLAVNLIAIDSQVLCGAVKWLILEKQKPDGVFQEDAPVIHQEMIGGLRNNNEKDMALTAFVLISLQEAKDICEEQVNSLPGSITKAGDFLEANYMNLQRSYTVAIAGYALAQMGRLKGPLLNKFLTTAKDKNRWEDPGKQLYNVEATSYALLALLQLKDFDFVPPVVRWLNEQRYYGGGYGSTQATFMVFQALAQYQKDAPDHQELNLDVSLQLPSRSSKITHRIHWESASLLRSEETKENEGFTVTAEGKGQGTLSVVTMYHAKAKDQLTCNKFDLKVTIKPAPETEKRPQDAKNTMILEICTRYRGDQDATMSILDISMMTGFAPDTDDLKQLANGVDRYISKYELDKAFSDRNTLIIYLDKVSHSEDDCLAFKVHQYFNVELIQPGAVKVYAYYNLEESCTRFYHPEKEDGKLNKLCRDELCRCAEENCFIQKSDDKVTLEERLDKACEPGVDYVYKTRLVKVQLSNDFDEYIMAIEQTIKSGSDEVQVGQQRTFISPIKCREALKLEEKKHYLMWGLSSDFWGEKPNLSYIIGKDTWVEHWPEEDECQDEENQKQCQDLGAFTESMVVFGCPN
The description is as above.

Test [3] addresses T2, human complement component C3. Nature of the test: cell-based or functional assay.
The target is the same in test [4]. As to the kind of experiment: SPR (Biacore).
Test [5] has the same target. Nature of the test: SPR (Biacore), compared with Hz38G10.
In test [6] the target is T1, cynomolgus monkey complement component …. Nature of the test: SPR (Biacore), antibody captured by anti-Fc on CM5 chip, C3 injected 0.62-40 nM, 37 C.
Test [7] has as its target T2, human complement component C3. The description is as above.

Substitutions are numbered along the chain they refer to. In names and notes the source's numbering stands.

T1 sequence (P01024 other isoform, or with tags, fused parts or gaps): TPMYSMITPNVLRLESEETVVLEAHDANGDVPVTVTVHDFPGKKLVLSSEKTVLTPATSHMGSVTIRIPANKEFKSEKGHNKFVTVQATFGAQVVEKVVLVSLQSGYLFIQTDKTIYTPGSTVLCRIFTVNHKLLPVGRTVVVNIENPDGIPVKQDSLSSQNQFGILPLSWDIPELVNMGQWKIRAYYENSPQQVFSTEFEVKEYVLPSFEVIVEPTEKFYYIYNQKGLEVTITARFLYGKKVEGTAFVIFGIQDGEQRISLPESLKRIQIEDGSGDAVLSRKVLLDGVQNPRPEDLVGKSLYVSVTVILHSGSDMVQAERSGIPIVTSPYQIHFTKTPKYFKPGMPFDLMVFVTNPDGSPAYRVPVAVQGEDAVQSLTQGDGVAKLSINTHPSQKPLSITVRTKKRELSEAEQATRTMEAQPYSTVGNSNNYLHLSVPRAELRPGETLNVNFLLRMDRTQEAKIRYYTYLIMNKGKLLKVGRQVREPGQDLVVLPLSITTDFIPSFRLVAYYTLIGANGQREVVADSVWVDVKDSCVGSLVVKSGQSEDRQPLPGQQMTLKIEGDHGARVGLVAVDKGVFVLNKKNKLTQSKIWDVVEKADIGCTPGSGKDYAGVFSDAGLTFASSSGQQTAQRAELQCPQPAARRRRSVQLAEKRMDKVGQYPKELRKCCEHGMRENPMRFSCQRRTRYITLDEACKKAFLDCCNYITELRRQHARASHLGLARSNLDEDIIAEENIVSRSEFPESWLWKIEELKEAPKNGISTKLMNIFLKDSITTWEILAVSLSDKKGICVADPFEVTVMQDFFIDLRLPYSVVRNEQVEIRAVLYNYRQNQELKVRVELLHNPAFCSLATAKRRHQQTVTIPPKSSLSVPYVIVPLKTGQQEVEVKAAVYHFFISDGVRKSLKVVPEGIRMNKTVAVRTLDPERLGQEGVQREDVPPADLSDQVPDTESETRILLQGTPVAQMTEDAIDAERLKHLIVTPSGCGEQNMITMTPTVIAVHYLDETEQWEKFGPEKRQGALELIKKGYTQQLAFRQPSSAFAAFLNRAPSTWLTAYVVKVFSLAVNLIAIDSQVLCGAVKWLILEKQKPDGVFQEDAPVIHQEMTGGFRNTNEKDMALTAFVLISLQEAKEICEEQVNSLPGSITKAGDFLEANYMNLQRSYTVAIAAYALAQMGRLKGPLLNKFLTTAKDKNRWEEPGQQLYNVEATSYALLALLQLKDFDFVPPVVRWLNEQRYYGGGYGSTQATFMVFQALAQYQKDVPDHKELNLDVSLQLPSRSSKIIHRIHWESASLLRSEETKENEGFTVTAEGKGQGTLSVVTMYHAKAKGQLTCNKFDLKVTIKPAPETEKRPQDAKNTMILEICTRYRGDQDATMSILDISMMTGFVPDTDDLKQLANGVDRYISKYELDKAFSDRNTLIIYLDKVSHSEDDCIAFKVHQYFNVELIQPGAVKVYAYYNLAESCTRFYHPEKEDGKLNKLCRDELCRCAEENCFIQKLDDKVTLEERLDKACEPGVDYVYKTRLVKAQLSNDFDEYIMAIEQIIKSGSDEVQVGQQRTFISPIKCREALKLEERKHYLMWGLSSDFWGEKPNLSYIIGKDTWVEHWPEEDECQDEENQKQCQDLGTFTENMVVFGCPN

B1: antibody Hz38G10 (antibody, human IgG1, kappa, V domains shown)
VH: QVQLVQSGAEVKKPGASVKVSCKASGYTFTDFYMDWVRQAPGQRLEWMGYIYPHNGGTTYNQQFTGRVTITVDKSASTAYMELSSLRSEDTAVYYCARRGGFDFDYWGQGTLVTVSS
VL: DIQMTQSPSSLSASVGDRVTITCKASENVDTYVSWYQQKPGKAPKLLIYGASNRYTGVPSRFSGSGSGTDFTFTISSLQPEDIATYHCGQSHSYPLTFGQGTKLEIKR
notes: also called humanized 38G10; Hz38G10 intact antibody
Regarding B1, the Kd in test [1] stood at 1.8 nM; in test [2], 0.3 nM. The “alternative pathway hemolysis assay, fold against COMP or COMP-PEG” value in test [3] was ~10 fold.

B2: variant of antibody Hz38G10 with a N55D mutation in the heavy chain CDR2 (antibody, V domains shown)
VH: B1 VH with N55D
VL: DIQMTQSPSSLSASVGDRVTITCKASENVDTYVSWYQQKPGKAPKLLIYGASNRYTGVPSRFSGSGSGTDFTFTISSLQPEDIATYHCGQSHSYPLTFGQGTKLEIK
notes: Mimics a fully deamidated molecule; also called Hz38G10 N55D variant
Turning to B2, the binding result in test [4] is given as “binds”.

B3: antibody Hz38G10(G56T) (antibody, V domains shown)
VH: B1 VH with G56T
VL: B2 VL
For B3, the binding result in test [5] is recorded as “binds”.

B4: antibody Hz38G10(G56A) (antibody, human IgG1, kappa, V domains shown)
VH: B1 VH with G56A
VL: B1 VL
Take B4: the binding result in test [5] was “binds”.

B5: antibody Hz38G10(N55Q) (antibody, V domains shown)
VH: B1 VH with N55Q
VL: B2 VL
Take B5: the binding result in test [5] is “binds”.

B6: antibody Hz38G10(N55E) (antibody, V domains shown)
VH: B1 VH with N55E
VL: B2 VL
In the case of B6, the binding result in test [5] was “binds”.

B7: Hz38G10 dsscFv (VL-linker-VH disulfide-stabilized scFv) (scFv)
scFv: MDIQMTQSPSSLSASVGDRVTITCKASENVDTYVSWYQQKPGKAPKLLIYGASNRYTGVPSRFSGSGSGTDFTFTISSLQPEDIATYHCGQSHSYPLTFGCGTKLEIKGGGGSGGGGSGGGGSQVQLVQSGAEVKKPGASVKVSCKASGYTFTDFYMDWVRQAPGQCLEWMGYIYPHNGGTTYNQQFTGRVTITVDKSASTAYMELSSLRSEDTAVYYCARRGGFDFDYWGQGTLVTVSS
notes: scFv with an engineered disulfide bond between VL and VH; also called Hz38G10 VL-linker-VH dsscFv
For B7, the binding result in test [4] is listed as “binds”.

B8: antibody 38G10 (antibody, V domains shown)
VH: EVQLQQSGPELVKPGDSVKMSCKASGYTFTDFYMDWVKQSHGKSLEWIGYIYPHNGGTTYNQNFTGKATLTVDKSSNTAYMELHSLTSEDSAVYYCARRGGFDFDYWGQGTTLTVSS
VL: NIVMTQSPKSMSLSVGERVTLRCKASENVDTYVSWYQQKPEQSPKLLIYGASNRYTGVPDRFTGSGSATEFTLTISSVQAEDLVGYHCGQSHSYPLTFGAGTKLELK
notes: Mouse hybridoma monoclonal antibody; also called parental 38G10 antibody
For the molecule B8, the Kd in test [6] is 0.16 nM; in test [7] it was 0.19 nM; in test [1] it was ~0.1 nM; in test [2] it was ~0.1 nM.

By Kd is commonly meant a measure of binding affinity in units of concentration.
